This note sets out measurements from article PMC7925540.

The experiment addresses Vlp15/16 of B. miyamotoi HT31 (B. miyamotoi HT31). The experiment is described as follows: ELISA; Vlp15/16 (5 µg/ml) immobilised, increasing amounts of plasminogen (0 to 20 µM); non-linear regression, one-site specific binding model. A general note: ELISA stands for enzyme-linked immunosorbent assay.

Consider Human glu-plasminogen (natural protein), for which the Kd (usually the constant that tells how readily two partners part at equilibrium) came to 354 nM.
